These results are taken from patent US7067619 (LA JOLLA CANCER RESEARCH FOUNDATION, dated 2006).

The labels stand for the following.
B1: CDCRGDCLC phage (peptide)
peptide: CDCRGDCLC
modifications: not fully specified (bridges); also: two disulfide bonds, pairing not given here
notes: on fuse 5 phage, fused to pIII
B2: CLCRGDCIC phage (peptide)
peptide: CLCRGDCIC
modifications: not fully specified (bridges); also: two disulfide bonds, pairing not given here
notes: as for B1

Ends that are not written are not given here.

T1 sequence (P08648 42-1049, chain 1 of 2): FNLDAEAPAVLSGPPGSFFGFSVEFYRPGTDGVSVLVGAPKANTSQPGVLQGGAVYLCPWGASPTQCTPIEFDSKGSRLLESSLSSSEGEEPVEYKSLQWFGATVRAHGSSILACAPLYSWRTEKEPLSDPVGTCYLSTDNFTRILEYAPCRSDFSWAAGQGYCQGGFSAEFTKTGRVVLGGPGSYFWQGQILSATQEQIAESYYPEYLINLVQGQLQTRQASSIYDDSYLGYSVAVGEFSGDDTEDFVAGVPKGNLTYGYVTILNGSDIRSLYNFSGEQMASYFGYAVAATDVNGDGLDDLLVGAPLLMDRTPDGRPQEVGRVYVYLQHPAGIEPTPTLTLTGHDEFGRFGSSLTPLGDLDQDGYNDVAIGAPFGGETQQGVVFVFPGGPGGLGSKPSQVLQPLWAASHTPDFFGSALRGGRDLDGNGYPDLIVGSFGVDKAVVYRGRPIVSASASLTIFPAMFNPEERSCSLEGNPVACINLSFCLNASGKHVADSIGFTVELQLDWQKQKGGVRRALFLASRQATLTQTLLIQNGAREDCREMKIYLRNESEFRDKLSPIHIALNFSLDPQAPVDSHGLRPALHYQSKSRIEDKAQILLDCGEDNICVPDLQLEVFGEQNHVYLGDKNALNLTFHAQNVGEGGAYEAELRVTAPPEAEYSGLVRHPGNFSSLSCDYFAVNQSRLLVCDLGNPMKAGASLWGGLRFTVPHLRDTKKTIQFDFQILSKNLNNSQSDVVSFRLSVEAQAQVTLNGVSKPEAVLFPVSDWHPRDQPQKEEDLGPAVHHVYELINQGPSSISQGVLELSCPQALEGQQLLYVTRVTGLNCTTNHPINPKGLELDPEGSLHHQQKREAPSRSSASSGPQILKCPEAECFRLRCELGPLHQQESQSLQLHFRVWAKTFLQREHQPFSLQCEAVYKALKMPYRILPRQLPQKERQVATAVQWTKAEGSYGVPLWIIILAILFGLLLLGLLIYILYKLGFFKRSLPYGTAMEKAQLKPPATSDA
T1 sequence (P05556 21-798, chain 2 of 2): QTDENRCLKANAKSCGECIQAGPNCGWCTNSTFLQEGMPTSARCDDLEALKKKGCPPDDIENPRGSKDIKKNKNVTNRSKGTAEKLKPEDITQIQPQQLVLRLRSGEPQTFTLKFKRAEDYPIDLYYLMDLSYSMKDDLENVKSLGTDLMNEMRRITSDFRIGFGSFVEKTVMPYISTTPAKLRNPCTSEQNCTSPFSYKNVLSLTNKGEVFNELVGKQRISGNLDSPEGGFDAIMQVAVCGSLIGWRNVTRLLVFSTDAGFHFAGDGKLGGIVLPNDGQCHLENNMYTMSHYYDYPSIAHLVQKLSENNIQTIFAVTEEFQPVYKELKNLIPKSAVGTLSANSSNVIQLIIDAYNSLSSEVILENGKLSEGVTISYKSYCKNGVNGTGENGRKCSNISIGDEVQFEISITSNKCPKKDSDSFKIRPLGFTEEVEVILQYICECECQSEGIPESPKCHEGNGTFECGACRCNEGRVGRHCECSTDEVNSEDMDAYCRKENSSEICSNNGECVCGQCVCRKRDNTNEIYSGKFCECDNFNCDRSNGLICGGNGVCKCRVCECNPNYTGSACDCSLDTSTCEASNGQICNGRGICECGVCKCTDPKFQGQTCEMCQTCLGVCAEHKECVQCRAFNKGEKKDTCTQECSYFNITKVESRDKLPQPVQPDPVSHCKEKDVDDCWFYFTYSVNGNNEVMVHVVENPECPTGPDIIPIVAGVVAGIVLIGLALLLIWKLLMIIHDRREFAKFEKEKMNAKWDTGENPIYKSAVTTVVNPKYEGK
Chain of αvβ5 integrin isolated from human placental extract (P06756 31-1048, chain 1 of 2): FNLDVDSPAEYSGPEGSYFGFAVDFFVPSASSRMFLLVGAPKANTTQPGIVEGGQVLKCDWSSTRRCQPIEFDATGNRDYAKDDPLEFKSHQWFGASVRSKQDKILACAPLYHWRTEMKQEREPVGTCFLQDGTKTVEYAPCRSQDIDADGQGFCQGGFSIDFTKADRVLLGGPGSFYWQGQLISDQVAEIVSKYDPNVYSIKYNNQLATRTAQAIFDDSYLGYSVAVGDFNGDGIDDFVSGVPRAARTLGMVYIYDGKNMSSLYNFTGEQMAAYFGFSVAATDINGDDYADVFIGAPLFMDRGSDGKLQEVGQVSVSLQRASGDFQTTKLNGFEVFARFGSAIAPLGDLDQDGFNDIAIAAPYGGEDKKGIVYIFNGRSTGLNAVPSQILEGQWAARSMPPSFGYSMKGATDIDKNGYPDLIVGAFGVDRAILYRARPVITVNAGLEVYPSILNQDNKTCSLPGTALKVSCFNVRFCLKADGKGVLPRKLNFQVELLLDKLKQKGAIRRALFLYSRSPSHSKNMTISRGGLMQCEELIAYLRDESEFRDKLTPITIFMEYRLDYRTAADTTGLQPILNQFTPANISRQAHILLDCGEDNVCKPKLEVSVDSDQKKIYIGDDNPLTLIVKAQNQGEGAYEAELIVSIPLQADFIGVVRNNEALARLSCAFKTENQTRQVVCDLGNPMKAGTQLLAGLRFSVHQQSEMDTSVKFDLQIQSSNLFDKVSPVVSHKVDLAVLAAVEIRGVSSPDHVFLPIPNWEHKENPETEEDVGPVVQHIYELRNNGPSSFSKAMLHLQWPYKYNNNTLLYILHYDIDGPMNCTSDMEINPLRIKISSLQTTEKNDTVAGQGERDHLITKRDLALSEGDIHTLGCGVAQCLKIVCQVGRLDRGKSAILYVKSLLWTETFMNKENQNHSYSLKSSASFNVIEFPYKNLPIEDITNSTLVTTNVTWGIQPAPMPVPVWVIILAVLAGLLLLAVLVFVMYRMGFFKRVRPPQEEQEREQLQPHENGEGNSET
Chain of αvβ5 integrin isolated from human placental extract (P18084 24-799, chain 2 of 2): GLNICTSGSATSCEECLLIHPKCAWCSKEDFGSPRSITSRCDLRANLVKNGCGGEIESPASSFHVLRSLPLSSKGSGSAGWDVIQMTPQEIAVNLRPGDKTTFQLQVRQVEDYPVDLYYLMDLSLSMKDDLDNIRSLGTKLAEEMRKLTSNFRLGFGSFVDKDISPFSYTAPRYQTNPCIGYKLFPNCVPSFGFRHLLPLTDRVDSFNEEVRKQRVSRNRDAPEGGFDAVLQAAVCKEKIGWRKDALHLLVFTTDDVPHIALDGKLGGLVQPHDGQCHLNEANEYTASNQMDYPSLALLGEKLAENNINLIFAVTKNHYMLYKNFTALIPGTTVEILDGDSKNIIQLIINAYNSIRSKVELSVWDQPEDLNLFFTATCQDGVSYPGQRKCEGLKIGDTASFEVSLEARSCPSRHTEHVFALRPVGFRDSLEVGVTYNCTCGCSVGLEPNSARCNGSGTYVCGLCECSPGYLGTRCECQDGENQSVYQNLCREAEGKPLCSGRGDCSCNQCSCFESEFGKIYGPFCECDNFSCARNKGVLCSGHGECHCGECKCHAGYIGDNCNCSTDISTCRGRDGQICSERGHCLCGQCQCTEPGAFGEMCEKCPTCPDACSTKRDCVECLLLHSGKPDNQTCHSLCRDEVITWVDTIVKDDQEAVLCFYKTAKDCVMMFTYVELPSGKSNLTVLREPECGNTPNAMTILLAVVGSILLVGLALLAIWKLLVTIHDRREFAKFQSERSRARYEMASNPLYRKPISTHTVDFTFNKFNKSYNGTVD

The first assay concerns the target αvβ5 integrin isolated from human placental extract (human, UniProt P06756 31-1048; P18084 24-799). Briefly: phage panning on coated integrin. The method, then: (§1) In the first panning, the integrins were coated at 5 µg per well, and the library pool was incubated for 4 hours at 25° C. in TBS buffer containing 1% bovine serum albumin and 1 mM MnCl_2 (α_5β_1, α_vβ_3) 1 mM MgCl_2 ($\alphaIIb\beta_3$) or 1 mM CaCl_2 (α_vβ_5).
With CIRRGDTFGC (on fuse 5 phage, fused to pIII) [CIRRGDTFGC phage], the binding result is given as “binds”.

On to CLHPNVRSC (on fuse 5 phage, fused to pIII) [CLHPNVRSC phage], for which the binding result is recorded as “binds”.

Turning to CVSRGDTPKC (on fuse 5 phage, fused to pIII) [CVSRGDTPKC phage], the binding result was “binds”.

For the molecule CAHRGDTPQC (on fuse 5 phage, fused to pIII) [CAHRGDTPQC phage], the binding result is listed as “binds”.

Take CRGDCCQSC (on fuse 5 phage, fused to pIII) [CRGDCCQSC phage]: the binding result is recorded as “binds”.

Regarding CIRQRIYPWC (on fuse 5 phage, fused to pIII) [CIRQRIYPWC phage], the binding result is recorded as “binds”.

As to CVGKELHKRV (on fuse 5 phage, fused to pIII) [CVGKELHKRV phage], the binding result is listed as “binds”.

Turning to CQSRGDDFSC (on fuse 5 phage, fused to pIII) [CQSRGDDFSC phage], the binding result is listed as “binds”.

Take CRKQVMACTA (on fuse 5 phage, fused to pIII) [CRKQVMACTA phage]: the binding result is recorded as “binds”.

For the molecule B1, the binding result is on record as “binds”.

On to CQVRGDQFAC (on fuse 5 phage, fused to pIII) [CQVRGDQFAC phage], for which the binding result was “binds”.

As for CSQKRGDTWC (on fuse 5 phage, fused to pIII) [CSQKRGDTWC phage], the binding result is “binds”.

In the case of CDSVLRVFC (on fuse 5 phage, fused to pIII) [CDSVLRVFC phage], the binding result is “binds”.

As to CEAKFQLHWV (on fuse 5 phage, fused to pIII) [CEAKFQLHWV phage], the binding result is “binds”.

As for CRGDTPGFLC (on fuse 5 phage, fused to pIII) [CRGDTPGFLC phage], the binding result was “binds”.

With CGQRSSARAS (on fuse 5 phage, fused to pIII) [CGQRSSARAS phage], the binding result is “binds”.

Turning to CAPRGDHFAC (on fuse 5 phage, fused to pIII) [CAPRGDHFAC phage], the binding result is given as “binds”.

Turning to CVTRGDSFSC (on fuse 5 phage, fused to pIII) [CVTRGDSFSC phage], the binding result is “binds”.

On to CRGDLPRAWC (on fuse 5 phage, fused to pIII) [CRGDLPRAWC phage], for which the binding result is on record as “binds”.

For the molecule B2, the binding result was “binds”.

In the case of CRGDVPAVGC (on fuse 5 phage, fused to pIII) [CRGDVPAVGC phage], the binding result is “binds”.

Take CQGRGDTFYC (on fuse 5 phage, fused to pIII) [CQGRGDTFYC phage]: the binding result was “binds”.

For CGRRGDVPRC (on fuse 5 phage, fused to pIII) [CGRRGDVPRC phage], the binding result is “binds”.

In the case of CGPRERFLSC (on fuse 5 phage, fused to pIII) [CGPRERFLSC phage], the binding result is on record as “binds”.

For the molecule CTRKRAVGAA (on fuse 5 phage, fused to pIII) [CTRKRAVGAA phage], the binding result is listed as “binds”.

CGSPLKSIKC (on fuse 5 phage, fused to pIII) [CGSPLKSIKC phage]: the binding result was “binds”.

In the case of CIEIQHGKAC (on fuse 5 phage, fused to pIII) [CIEIQHGKAC phage], the binding result is recorded as “binds”.

CPDKRGDTYC (on fuse 5 phage, fused to pIII) [CPDKRGDTYC phage]: the binding result is reported as “binds”.

CTQRGDNFFC (on fuse 5 phage, fused to pIII) [CTQRGDNFFC phage]: the binding result is on record as “binds”.

As for CPRRGDTFSC (on fuse 5 phage, fused to pIII) [CPRRGDTFSC phage], the binding result was “binds”.

Take CYRGDADFWC (on fuse 5 phage, fused to pIII) [CYRGDADFWC phage]: the binding result is listed as “binds”.

Another assay addresses T1, α5β1 integrin isolated from human placental extract (human, UniProt P08648 42-1049; P05556 21-798).
T1 construct: coated on plastic wells or captured by anti-α5 antibody; also called fibronectin receptor
Briefly: phage panning on coated integrin. The method, then: as §1
CDWRGDNQFC (on fuse 5 phage, fused to pIII) [CDWRGDNQFC phage]: the binding result is listed as “binds”.

Take CRGDGYCVFF (on fuse 5 phage, fused to pIII) [CRGDGYCVFF phage]: the binding result is on record as “binds”.

Turning to CTNVNGRSAC (on fuse 5 phage, fused to pIII) [CTNVNGRSAC phage], the binding result is “binds”.

CLRGDGLALC (on fuse 5 phage, fused to pIII) [CLRGDGLALC phage]: the binding result is given as “binds”.

CYVNGRAWAC (on fuse 5 phage, fused to pIII) [CYVNGRAWAC phage]: the binding result was “binds”.

Consider CRGDCLPTPR (on fuse 5 phage, fused to pIII) [CRGDCLPTPR phage], for which the binding result is given as “binds”.

In the case of CRGDGAWC (on fuse 5 phage, fused to pIII) [CRGDGAWC phage], the binding result is on record as “binds”.

On to CRGDGLMC (on fuse 5 phage, fused to pIII) [CRGDGLMC phage], for which the binding result is on record as “binds”.

Consider CRGDGLWC (on fuse 5 phage, fused to pIII) [CRGDGLWC phage], for which the binding result is “binds”.

Take CRGDGWLC (on fuse 5 phage, fused to pIII) [CRGDGWLC phage]: the binding result is recorded as “binds”.

Consider CRGDGWIC (on fuse 5 phage, fused to pIII) [CRGDGWIC phage], for which the binding result is listed as “binds”.

Regarding CRGDGFLC (on fuse 5 phage, fused to pIII) [CRGDGFLC phage], the binding result was “binds”.

On to CRGDGWMC (on fuse 5 phage, fused to pIII) [CRGDGWMC phage], for which the binding result is “binds”.

Consider CRGDGWWC (on fuse 5 phage, fused to pIII) [CRGDGWWC phage], for which the binding result is listed as “binds”.

On to CRGDAAHC (on fuse 5 phage, fused to pIII) [CRGDAAHC phage], for which the binding result is reported as “binds”.

As to CRGDRAWC (on fuse 5 phage, fused to pIII) [CRGDRAWC phage], the binding result was “binds”.

With CRGDGLIC (on fuse 5 phage, fused to pIII) [CRGDGLIC phage], the binding result is on record as “binds”.

For CRGDNVWC (on fuse 5 phage, fused to pIII) [CRGDNVWC phage], the binding result is “binds”.

In the case of CRGDNAWC (on fuse 5 phage, fused to pIII) [CRGDNAWC phage], the binding result is reported as “binds”.

Consider CRGDGLLC (on fuse 5 phage, fused to pIII) [CRGDGLLC phage], for which the binding result is recorded as “binds”.

In the case of CRGDGLDC (on fuse 5 phage, fused to pIII) [CRGDGLDC phage], the binding result is listed as “binds”.

As for CRGDGMLC (on fuse 5 phage, fused to pIII) [CRGDGMLC phage], the binding result was “binds”.

CRGDGAFC (on fuse 5 phage, fused to pIII) [CRGDGAFC phage]: the binding result is reported as “binds”.

As to CRGDGMWC (on fuse 5 phage, fused to pIII) [CRGDGMWC phage], the binding result is on record as “binds”.

Consider CRGDAAWC (on fuse 5 phage, fused to pIII) [CRGDAAWC phage], for which the binding result is recorded as “binds”.

In the case of CGQRGDGFCL (on fuse 5 phage, fused to pIII) [CGQRGDGFCL phage], the binding result is given as “binds”.

As for CWRGDHVMPC (on fuse 5 phage, fused to pIII) [CWRGDHVMPC phage], the binding result was “binds”.

Take CPVRRGDGWC (on fuse 5 phage, fused to pIII) [CPVRRGDGWC phage]: the binding result is recorded as “binds”.

Consider CRGDGQHC (on fuse 5 phage, fused to pIII) [CRGDGQHC phage], for which the binding result is given as “binds”.

Regarding CGQGMHRLAC (on fuse 5 phage, fused to pIII) [CGQGMHRLAC phage], the binding result is listed as “binds”.

CQGIDGTPAC (on fuse 5 phage, fused to pIII) [CQGIDGTPAC phage]: the binding result is “binds”.

For CRGDGLMCGL (on fuse 5 phage, fused to pIII) [CRGDGLMCGL phage], the binding result is listed as “binds”.

For CQGMHGTPAC (on fuse 5 phage, fused to pIII) [CQGMHGTPAC phage], the binding result was “binds”.
